The supplement of paper PMC11316812
± gives the standard deviation of the averaged measurements.

Tests used:
MCF7 = test: percentage of EdU-negative (G0-arrested) nuclei per well, 72 h; higher = more G0 arrest; details: reference: sequence is the full UniProt precursor, the tested protein was the secreted form or ectodomain
hTERT-HMEC = test: as above; details: reference: sequence is the full UniProt precursor, the tested protein was the secreted form or ectodomain
[1] = protein concentration 0.03125 µM
[2] = protein concentration 0.3125 µM
[3] = protein concentration 0.0185 µM
[4] = protein concentration 0.01925 µM
[5] = protein concentration 0.1925 µM
[6] = protein concentration 0.0225 µM
[7] = protein concentration 0.0115 µM
[8] = protein concentration 0.0357143 µM
[9] = protein concentration 0.357143 µM
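Note: secreted proteins added to cultured cells, EdU pulse at the end, nuclei found by Hoechst imaging, EdU status from nuclear versus surrounding ring intensity ratio, PBS as neutral control.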

Sequence: MARARGSPCPPLPPGRMSWPHGALLFLWLFSPPLGAGGGGVAVTSAAGGGSPPATSCPVACSCSNQASRVICTRRDLAEVPASIPVNTRYLNLQENGIQVIRTDTFKHLRHLEILQLSKNLVRKIEVGAFNGLPSLNTLELFDNRLTTVPTQAFEYLSKLRELWLRNNPIESIPSYAFNRVPSLRRLDLGELKRLEYISEAAFEGLVNLRYLNLGMCNLKDIPNLTALVRLEELELSGNRLDLIRPGSFQGLTSLRKLWLMHAQVATIERNAFDDLKSLEELNLSHNNLMSLPHDLFTPLHRLERVHLNHNPWHCNCDVLWLSWWLKETVPSNTTCCARCHAPAGLKGRYIGELDQSHFTCYAPVIVEPPTDLNVTEGMAAELKCRTGTSMTSVNWLTPNGTLMTHGSYRVRISVLHDGTLNFTNVTVQDTGQYTCMVTNSAGNTTASATLNVSAVDPVAAGGTGSGGGGPGGSGGVGGGSGGYTYFTTVTVETLETQPGEEALQPRGTEKEPPGPTTDGVWGGGRPGDAAGPASSSTTAPAPRSSRPTEKAFTVPITDVTENALKDLDDVMKTTKIIIGCFVAITFMAAVMLVAFYKLRKQHQLHKHHGPTRTVEIINVEDELPAASAVSVAAAAAVASGGGVGGDSHLALPALERDHLNHHHYVAAAFKAHYSSNPSGGGCGGKGPPGLNSIHEPLLFKSGSKENVQETQI [Q9NT99]
- percentage of EdU-negative (MCF7; [1]): 22.3 ± 1.6%
- percentage of EdU-negative (MCF7; [2]): 26.4 ± 1.3%
- percentage of EdU-negative (hTERT-HMEC; [1]): 5.15 ± 0.48%
- percentage of EdU-negative (hTERT-HMEC; [2]): 6.95 ± 0.74%

Sequence: MAREMTILGSAVLTLLLAGYLAQQYLPLPTPKVIGIDLGTTYCSVGVFFPGTGKVKVIPDENGHISIPSMVSFTDNDVYVGYESVELADSNPQNTIYDAKRFIGKIFTAEELEAEIGRYPFKVLNKNGMVEFSVTSNETITVSPEYVGSRLLLKLKEMAEAYLGMPVANAVISVPAEFDLKQRNSTIEAANLAGLKILRVINEPTAAAMAYGLHKADVFHVLVIDLGGGTLDVSLLNKQGGMFLTRAMSGNNKLGGQDFNQRLLQYLYKQIYQTYGFVPSRKEEIHRLRQAVEMVKLNLTLHQSAQLSVLLTVEEQDRKEPHSSDTELPKDKLSSADDHRVNSGFGRGLSDKKSGESQVLFETEISRKLFDTLNEDLFQKILVPIQQVLKEGHLEKTEIDEVVLVGGSTRIPRIRQVIQEFFGKDPNTSVDPDLAVVTGVAIQAGIDGGSWPLQVSALEIPNKHLQKTNFN
- percentage of EdU-negative (MCF7; [3]): 25 ± 2%
- percentage of EdU-negative (MCF7; protein concentration 0.185 µM): 25.9 ± 0.78%
- percentage of EdU-negative (hTERT-HMEC; [3]): 4.53 ± 0.31%
- percentage of EdU-negative (hTERT-HMEC; protein concentration 0.185 µM): 5.54 ± 0.38%

Sequence: MARERPPGRGCGVLRRCLLGAVLLFGLRLCAELRRAGPGSPTRSAPPGPAWRPPGPHLPPAPGQPRGASRRQVTYVRSGRRAPPGGGGSGTPEPGCCAPRGRPRRKGPRWHIDLQPWAGSAQSLDEEAWRFLRYISTTQIACNHMNTDSLATDSSPTHKPWSVCLDDRFNLAHQIRNKQCRLYSLGLGSDDTHFEVSMANNGCEVHRFDPSVKSAHILESQHLWYHRLSIDWRDPHPAVAAQKPHSNTRKLGSILNEFGHHKIDVLKADLESAEWKVLENLILEDVLEQIGQLIFEIHLHWPGFEVSGSDSSVVRFWYSLLKELEQKDFRLFHSYKDLSKPQLFLKKDIFNASSCYTLSWVNTRWK [Q5JXM2]
- percentage of EdU-negative (MCF7; protein concentration 0.017 µM): 26.3 ± 1.3%
- percentage of EdU-negative (MCF7; protein concentration 0.17 µM): 28.6 ± 1.7%
- percentage of EdU-negative (hTERT-HMEC; protein concentration 0.017 µM): 4.87 ± 0.35%
- percentage of EdU-negative (hTERT-HMEC; protein concentration 0.17 µM): 10.9 ± 1.9%

Sequence: MARFGLPALLCTLAVLSAALLAAELKSKSCSEVRRLYVSKGFNKNDAPLHEINGDHLKICPQGSTCCSQEMEEKYSLQSKDDFKSVVSEQCNHLQAVFASRYKKFDEFFKELLENAEKSLNDMFVKTYGHLYMQNSELFKDLFVELKRYYVVGNVNLEEMLNDFWARLLERMFRLVNSQYHFTDEYLECVSKYTEQLKPFGDVPRKLKLQVTRAFVAARTFAQGLAVAGDVVSKVSVVNPTAQCTHALLKMIYCSHCRGLVTVKPCYNYCSNIMRGCLANQGDLDFEWNNFIDAMLMVAERLEGPFNIESVMDPIDVKISDAIMNMQDNSVQVSQKVFQGCGPPKPLPAGRISRSISESAFSARFRPHHPEERPTTAAGTSLDRLVTDVKEKLKQAKKFWSSLPSNVCNDERMAAGNGNEDDCWNGKGKSRYLFAVTGNGLANQGNNPEVQVDTSKPDILILRQIMALRVMTSKMKNAYNGNDVDFFDISDESSGEGSGSGCEYQQCPSEFDYNATDHAGKSANEKADSAGVRPGAQAYLLTVFCILFLVMQREWR
- percentage of EdU-negative (MCF7; [4]): 26.5 ± 0.51%
- percentage of EdU-negative (MCF7; [5]): 29.9 ± 0.64%
- percentage of EdU-negative (hTERT-HMEC; [4]): 4.9 ± 0.24%
- percentage of EdU-negative (hTERT-HMEC; [5]): 4.77 ± 0.82%

Sequence: MARFPKADLAAAGVMLLCHFFTDQFQFADGKPGDQILDWQYGVTQAFPHTEEEVEVDSHAYSHRWKRNLDFLKAVDTNRASVGQDSPEPRSFTDLLLDDGQDNNTQIEEDTDHNYYISRIYGPSDSASRDLWVNIDQMEKDKVKIHGILSNTHRQAARVNLSFDFPFYGHFLREITVATGGFIYTGEVVHRMLTATQYIAPLMANFDPSVSRNSTVRYFDNGTALVVQWDHVHLQDNYNLGSFTFQATLLMDGRIIFGYKEIPVLVTQISSTNHPVKVGLSDAFVVVHRIQQIPNVRRRTIYEYHRVELQMSKITNISAVEMTPLPTCLQFNRCGPCVSSQIGFNCSWCSKLQRCSSGFDRHRQDWVDSGCPEESKEKMCENTEPVETSSRTTTTVGATTTQFRVLTTTRRAVTSQFPTSLPTEDDTKIALHLKDNGASTDDSAAEKKGGTLHAGLIIGILILVLIVATAILVTVYMYHHPTSAASIFFIERRPSRWPAMKFRRGSGHPAYAEVEPVGEKEGFIVSEQC [Q6UX71]
- percentage of EdU-negative (MCF7; [6]): 27.4 ± 2.7%
- percentage of EdU-negative (MCF7; protein concentration 0.225 µM): 26.561 ± 0.011%
- percentage of EdU-negative (hTERT-HMEC; [6]): 4.63 ± 0.96%
- percentage of EdU-negative (hTERT-HMEC; protein concentration 0.225 µM): 7.25 ± 1.4%

Sequence: MARFWVCVAGAGFFLAFLVLHSRFCGSPVLRNFTFAVSWRTEKILYRLDVGWPKHPEYFTGTTFCVAVDSLNGLVYIGQRGDNIPKILVFTEDGYFLRAWNYTVDTPHGIFAASTLYEQSVWITDVGSGFFGHTVKKYSSFGDLVQVLGTPGKKGTSLNPLQFDNPAELYVEDTGDIYIVDGDGGLNNRLIKLSQDFMILWLHGENGTGPAKFNIPHSVTLDSAGRVWVADRGNKRIQVFDKDTGEWLGAWNNCFTEEGPSSVRFTPDGKYLIVAQLNLSRLSVVAAPPVGSIGECSVISTIQLADQVLPHLLEVDRKTGAVYVAEIGAKQVQKYVPLNSYVPSFGS [Q5JS37]
- percentage of EdU-negative (MCF7; [7]): 26.8 ± 0.58%
- percentage of EdU-negative (MCF7; protein concentration 0.115 µM): 29.3 ± 1.4%
- percentage of EdU-negative (hTERT-HMEC; [7]): 4.82 ± 0.15%
- percentage of EdU-negative (hTERT-HMEC; protein concentration 0.115 µM): 16.1 ± 0.13%

Sequence: MARGGRGRRLGLALGLLLALVLAPRVLRAKPTVRKERVVRPDSELGERPPEDNQSFQYDHEAFLGKEDSKTFDQLTPDESKERLGKIVDRIDNDGDGFVTTEELKTWIKRVQKRYIFDNVAKVWKDYDRDKDDKISWEEYKQATYGYYLGNPAEFHDSSDHHTFKKMLPRDERRFKAADLNGDLTATREEFTAFLHPEEFEHMKEIVVLETLEDIDKNGDGFVDQDEYIADMFSHEENGPEPDWVLSEREQFNEFRDLNKDGKLDKDEIRHWILPQDYDHAQAEARHLVYESDKNKDEKLTKEEILENWNMFVGSQATNYGEDLTKNHDEL
- percentage of EdU-negative (MCF7; [6]): 22.7 ± 0.8%
- percentage of EdU-negative (MCF7; protein concentration 0.225 µM): 25.5 ± 0.44%
- percentage of EdU-negative (hTERT-HMEC; [6]): 4.56 ± 0.49%
- percentage of EdU-negative (hTERT-HMEC; protein concentration 0.225 µM): 6.14 ± 0.11%

Sequence: MARGSAVAWAALGPLLWGCALGLQGGMLYPQESPSRECKELDGLWSFRADFSDNRRRGFEEQWYRRPLWESGPTVDMPVPSSFNDISQDWRLRHFVGWVWYEREVILPERWTQDLRTRVVLRIGSAHSYAIVWVNGVDTLEHEGGYLPFEADISNLVQVGPLPSRLRITIAINNTLTPTTLPPGTIQYLTDTSKYPKGYFVQNTYFDFFNYAGLQRSVLLYTTPTTYIDDITVTTSVEQDSGLVNYQISVKGSNLFKLEVRLLDAENKVVANGTGTQGQLKVPGVSLWWPYLMHERPAYLYSLEVQLTAQTSLGPVSDFYTLPVGIRTVAVTKSQFLINGKPFYFHGVNKHEDADIRGKGFDWPLLVKDFNLLRWLGANAFRTSHYPYAEEVMQMCDRYGIVVIDECPGVGLALPQFFNNVSLHHHMQVMEEVVRRDKNHPAVVMWSVANEPASHLESAGYYLKMVIAHTKSLDPSRPVTFVSNSNYAADKGAPYVDVICLNSYYSWYHDYGHLELIQLQLATQFENWYKKYQKPIIQSEYGAETIAGFHQDPPLMFTEEYQKSLLEQYHLGLDQKRRKYVVGELIWNFADFMTEQSPTRVLGNKKGIFTRQRQPKSAAFLLRERYWKIANETRYPHSVAKSQCLENSLFT
- percentage of EdU-negative (MCF7; [6]): 24.2 ± 0.95%
- percentage of EdU-negative (MCF7; protein concentration 0.225 µM): 23.4 ± 1.8%
- percentage of EdU-negative (hTERT-HMEC; [6]): 5.26 ± 0.26%
- percentage of EdU-negative (hTERT-HMEC; protein concentration 0.225 µM): 5.74 ± 0.95%

Sequence: MARILLLFLPGLVAVCAVHGIFMDRLASKKLCADDECVYTISLASAQEDYNAPDCRFINVKKGQQIYVYSKLVKENGAGEFWAGSVYGDGQDEMGVVGYFPRNLVKEQRVYQEATKEVPTTDIDFFCE [Q9NRC9]
- percentage of EdU-negative (MCF7; [8]): 24.18 ± 0.24%
- percentage of EdU-negative (MCF7; [9]): 27 ± 3.7%
- percentage of EdU-negative (hTERT-HMEC; [8]): 5.05 ± 0.39%
- percentage of EdU-negative (hTERT-HMEC; [9]): 5.74 ± 0.68%

Sequence: MARLALSPVPSHWMVALLLLLSAEPVPAARSEDRYRNPKGSACSRIWQSPRFIARKRGFTVKMHCYMNSASGNVSWLWKQEMDENPQQLKLEKGRMEESQNESLATLTIQGIRFEDNGIYFCQQKCNNTSEVYQGCGTELRVMGFSTLAQLKQRNTLKDGIIMIQTLLIILFIIVPIFLLLDKDDSKAGMEEDHTYEGLDIDQTATYEDIVTLRTGEVKWSVGEHPGQE
- percentage of EdU-negative (MCF7; [6]): 25.5 ± 0.14%
- percentage of EdU-negative (MCF7; protein concentration 0.225 µM): 26.8 ± 0.87%
- percentage of EdU-negative (hTERT-HMEC; [6]): 5.71 ± 0.54%
- percentage of EdU-negative (hTERT-HMEC; protein concentration 0.225 µM): 8.95 ± 0.22%
